Experimental findings from PMC12370899, “Promiscuous and multivalent interactions between Eps15 and partner protein Dab2 generate a complex interaction network” (Nature Communications, 2025) are described below.

B1: Dab2_(320–495) (domain or fragment, UniProt P98082 320-495, looked up)
chain: KKENSSSSSTPLSNGPLNGDVDYFGQQFDQISNRTGKQEAQAGPWPFSSSQTQPAVRTQNGVSEREQNGFSVKSSPNPFVGSPPKGLSIQNGVKQDLESSVQSSPHDSIAIIPPPQSTKPGRGRRTAKSSANDLLASDIFAPPVSEPSGQASPTGQPTALQPNPLDLFKTSAPAPV
notes: gene bought from Twist Bioscience, in pET28a; 15N-labelled where it was the observed protein; The S328C mutant was used only for microscopy of droplets and is not written; also called Dab2 fragment; source: E. coli Rosetta (DE3), purified (nickel column, SEC); not shown: His-tag, C-terminal, kept
B2: Eps15 EH123 (EH1-EH2-EH3, the full EH-domain containing region) (domain or fragment, human, UniProt P42566 1-310, looked up)
chain: MAAAAQLSLTQLSSGNPVYEKYYRQVDTGNTGRVLASDAAAFLKKSGLPDLILGKIWDLADTDGKGILNKQEFFVALRLVACAQNGLEVSLSSLNLAVPPPRFHDTSSPLLISGTSAAELPWAVKPEDKAKYDAIFDSLSPVNGFLSGDKVKPVLLNSKLPVDILGRVWELSDIDHDGMLDRDEFAVAMFLVYCALEKEPVPMSLPPALVPPSKRKTWVVSPAEKAKYDEIFLKTDKDMDGFVSGLEVREIFLKTGLPSTLLAHIWSLCDTKDCGKLSKDQFALAFHLISQKLIKGIDPPHVLTPEMIPP
notes: Eps15, UniProt P42566, the three N-terminal EH domains in row; in pET28-6His-GB1; 15N-labelled where it was the observed protein; source: E. coli Rosetta (DE3), purified (nickel column, TEV cleavage, SEC); not shown: 6His, N-terminal, cleaved; GB1, N-terminal, cleaved
B3: Eps15 EH2 domain (domain or fragment, human, UniProt P42566 121-215, looked up)
chain: PWAVKPEDKAKYDAIFDSLSPVNGFLSGDKVKPVLLNSKLPVDILGRVWELSDIDHDGMLDRDEFAVAMFLVYCALEKEPVPMSLPPALVPPSKR
notes: Eps15, UniProt P42566, second EH domain; in pET41c; The NdeI primer puts a start methionine before P121; non-cleavable C-terminal His-tag from pET41c; 15N-labelled where it was the observed protein; source: E. coli Rosetta (DE3), purified (nickel column, SEC); not shown: His-tag, C-terminal, kept

Common to all, as to details: both partners purified
The target of assay [1] is B2. The assay can be described thus: NMR titration; competition: equimolar EH123, Eps15IDR and Dab2(320-495) together, observed in turn on 15N EH123, 15N Eps15IDR and 15N Dab2(320-495); NMR buffer pH 6, 25 °C.
For assay [2], the target named is T1, Eps15IDR (Eps15's own intrinsically disordered region) (human, UniProt P42566 481-896).
T1 construct: Eps15, UniProt P42566, C-terminal intrinsically disordered region; limits 481-896 from the N-terminal residues 481-521, the overlapping stretches 481-581 to 761-896 and the primer names Eps15_481_Nde1_fw and Eps15_896_Not1_rv; in pET28-6His-GB1; 15N-labelled where it was the observed protein; source: E. coli Rosetta (DE3), purified (nickel column, TEV cleavage, SEC); not shown: 6His, N-terminal, …
T1 sequence (looked up): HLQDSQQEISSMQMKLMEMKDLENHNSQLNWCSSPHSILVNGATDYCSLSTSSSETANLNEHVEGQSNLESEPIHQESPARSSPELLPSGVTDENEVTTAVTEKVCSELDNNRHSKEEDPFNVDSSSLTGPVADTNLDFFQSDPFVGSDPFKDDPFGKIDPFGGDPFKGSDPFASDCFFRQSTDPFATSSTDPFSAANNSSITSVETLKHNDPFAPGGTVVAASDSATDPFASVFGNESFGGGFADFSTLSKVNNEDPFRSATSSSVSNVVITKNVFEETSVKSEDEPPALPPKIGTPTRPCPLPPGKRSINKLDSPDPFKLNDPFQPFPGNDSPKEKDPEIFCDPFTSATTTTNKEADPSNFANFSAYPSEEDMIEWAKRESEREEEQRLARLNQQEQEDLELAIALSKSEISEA
Put plainly: NMR titration; equimolar unlabelled Eps15IDR (200 µM) added to 200 µM 15N EH123; 1H-15N TROSY-HSQC CSPs and R1rho at 1200 MHz; NMR buffer pH 6, 25 °C.

Assay [3] has as its target B1. The assay can be described thus: NMR CPMG relaxation dispersion; 100 µM 15N Dab2(320-495) with 10 µM (10%) EH2; 600 and 900 MHz; 12 residues of helixN and the NPF motif fitted globally, two-site exchange model (ChemEx); NMR buffer pH 6, 25 °C.

As for B1, the binding result in assay [1] is listed as “binds”.

For B2, in assay [2], the binding result is “binds”.

B3: the Kd in assay [3] turned out to be 196 µM.

For orientation: Kd means the concentration at which binding is half-saturated. A low value points to a tighter complex.
